According to patent publication US20220112269A1 (WISCONSIN ALUMNI RESEARCH FOUNDATION, published 2022):
Substitutions are numbered along the chain they refer to. Names and notes keep the numbering of the source. Non-standard residues stand in square brackets, D forms with d. No end group written: not given here. Hyp = O=C(O)[C@@H]1C[C@@H](O)CN1

Legend:
[1] = molecular target: the molecule itself; test: AUC, CD, DLS, self-assembly
[2] = molecular target: the molecule itself; test: CD, DLS, rheology, self-assembly
[3] = molecular target: the molecule itself; test: AUC, CD, self-assembly
[4] = molecular target: the molecule itself; test: CD, TEM, DLS, self-assembly
[5] = molecular target: the molecule itself; test: CD, TEM, DLS, rheology, self-assembly
[6] = molecular target: the molecule itself; test: AUC, CD, AFM, TEM, self-assembly
[7] = molecular target: the molecule itself; test: sedimentation equilibrium AUC, monomer + multimer model, 15000 rpm, 4 C; self-assembly, lower bound
Method: Sedimentation equilibrium experiments were performed at the UW BIF with an XL-A analytical ultracentrifuge from Beckman Coulter (Brea, Calif.) equipped with an An-60 Ti rotor. Samples were prepared at 0.6 mg/mL in 10 mM sodium phosphate buffer, pH 7.0, but were diluted to 0.3 mg/mL prior to the experiment. Sample (100 μL) and matching buffer (110 μL) were placed in a cell with an Epon 12-mm double-sector charcoal-filled centerpiece from Beckman Coulter. Experiments were run at 4° C. for more than 7 days at speeds of 8.8, 15, 25, 36, and 60 k rpm, and gradients recorded at 231 nm were monitored until superimposable 4 h apart. A buffer density of 1.0011 g/mL and a partial specific volume of 0.6955 mL/g calculated based on amino-acid content was used for analysis. Equilibrium gradients at 4° C. were modeled as single and multiple non-interacting species through nonlinear least-squares fits to gradient data. Analysis was performed with programs written for IGOR PRO software from WaveMetrics (Lake Oswego, Oreg.) by Dr. D. R. McCaslin (UW BIF). Non-sedimenting baselines between 0.04-0.07 OD were applied for all samples during analysis.

[8] = molecular target: the molecule itself; test: CD, DLS, self-assembly
[9] = molecular target: the molecule itself; test: CD, TEM, DLS, self-assembly of the disulfide-linked dimer
[10] = molecular target: the molecule itself; test: CD, TEM, DLS, self-association without fibers
[11] = molecular target: the molecule itself; test: CD, TEM, self-assembly

B1: 3sb-KDO (peptide)
peptide: PKGPKGPKGP[Hyp]GP[Hyp]GD[Hyp]GD[Hyp]GD[Hyp]GP[Hyp]GP[Hyp]GP[Hyp]
modifications: not fully specified (C-terminus)
notes: nT=11, printed without the last Gly
B1: binds [1].

B2: 4sbG-gap4 (peptide)
peptide: P[Hyp]GP[Hyp]GP[Hyp]GPKGPKGPKGP[Hyp]GPKGP[Hyp]GD[Hyp]GD[Hyp]GD[Hyp]GP[Hyp]GD[Hyp]G
notes: nT=14
B2: binds [2].

B3: 3sbG-KDO (peptide)
peptide: PKGPKGPKGP[Hyp]GP[Hyp]GD[Hyp]GD[Hyp]GD[Hyp]GP[Hyp]GP[Hyp]GP[Hyp]G
notes: nT=11
B3: binds [3].

B4: 4sbG-KDO2 (peptide)
peptide: P[Hyp]GPKGPKGPKGPKGP[Hyp]GP[Hyp]GD[Hyp]GD[Hyp]GD[Hyp]GD[Hyp]GP[Hyp]GP[Hyp]GP[Hyp]G
notes: nT=14
B4: binds [4].

B5: 3sb-OKD (peptide)
peptide: P[Hyp]GP[Hyp]GP[Hyp]GPKGPKGPKGP[Hyp]GP[Hyp]GD[Hyp]GD[Hyp]GD[Hyp]
notes: as for B1
B5: binds [3].

B6: 4sbG-OKDO (peptide)
peptide: P[Hyp]GP[Hyp]GPKGPKGPKGPKGP[Hyp]GP[Hyp]GD[Hyp]GD[Hyp]GD[Hyp]GD[Hyp]GP[Hyp]GP[Hyp]G
notes: nT=14
B6: binds [5].

B7: 4sb-OKD (peptide)
peptide: P[Hyp]GP[Hyp]GP[Hyp]GP[Hyp]GPKGPKGPKGPKGP[Hyp]GP[Hyp]GD[Hyp]GD[Hyp]GD[Hyp]GD[Hyp]
notes: nT=14, printed without the last Gly
B7: binds [6].

B8: 4sbG-OKD ("OKD") (peptide)
peptide: PXGPXGPXGPXGPKGPKGPKGPKGPXGPXGDXGDXGDXGDXG
modifications: O = 4-hydroxyproline (Hyp)
notes: Synthetic 42-residue collagen-mimetic peptide (nT=14)
In the case of B8, the “Average oligomerization by AUC” value [7] is reported as > 188 -mer.

B9: 4sbG-OKD2 (peptide)
peptide: B8 peptide with X11K, K23X, P28D, D40P
modifications: O = 4-hydroxyproline (Hyp)
notes: nT=14
B9: binds [5].

B10: OKD2-C8 (peptide)
peptide: B8 peptide with X8C, X11K, K23X, P28D, D40P
modifications: O = 4-hydroxyproline (Hyp)
notes: Single Cys-bearing peptide, nT=14
B10: binds [8].

B11: OKD2-OKD2 (peptide)
chain 1: B8 peptide with X11K, P22X, K23X, P28D, D40P
chain 2: B8 peptide with X8C, X11K, K23X, P28D, D40P
modifications: O = 4-hydroxyproline (Hyp); Cys in an interstrand disulfide bridge with Hcy of the other chain; O = 4-hydroxyproline (Hyp); Hcy = homocysteine, in an interstrand disulfide bridge with Cys of the other chain
notes: Disulfide-linked dimer (nT 14-14)
B11: binds [9].

B12: OKD2-h22 (peptide)
peptide: B8 peptide with X11K, P22X, K23X, P28D, D40P
modifications: O = 4-hydroxyproline (Hyp); Hcy = homocysteine
notes: Single Hcy-bearing peptide, nT=14
B12: binds [8].

B13: 4sbG-OKD2ctrl (peptide)
peptide: P[Hyp]GP[Hyp]GPKGPKGPKGP[Hyp]GPKGP[Hyp]GP[Hyp]GD[Hyp]GP[Hyp]GD[Hyp]GD[Hyp]GD[Hyp]G
notes: nT=14
B13: binds [10].

B14: 3sbG-OKD (peptide)
peptide: P[Hyp]GP[Hyp]GP[Hyp]GPKGPKGPKGP[Hyp]GP[Hyp]GD[Hyp]GD[Hyp]GD[Hyp]G
notes: nT=11
B14: binds [11].
